Drawing on paper PMC2755957 (The Journal of Biological Chemistry, 2009), this text covers Kd, Km and Vmax for twelve molecules.

Data set [1] addresses T1, mouse Δ1–24-L-PGDS (lipocalin type prostaglandin D synthase) (Mus musculus, UniProt O09114, S45A/S81A/T67A).
T1 sequence (O09114 25-189 S45A/T67A/S81A): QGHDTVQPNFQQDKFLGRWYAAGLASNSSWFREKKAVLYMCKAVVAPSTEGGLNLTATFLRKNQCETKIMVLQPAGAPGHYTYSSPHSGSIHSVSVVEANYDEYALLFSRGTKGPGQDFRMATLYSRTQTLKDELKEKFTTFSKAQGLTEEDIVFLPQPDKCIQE
The experiment in a line: biochemical.

Substrate in data set [2]: [H][C@]12C[C@]([H])(OO1)[C@H](C/C=C\CCCC(=O)O)[C@H]2/C=C/[C@@H](O)CCCCC
As to the kind of experiment: purified protein, by the assay type. To be noted: pH 8.0; 25.0 °C.

Changes are numbered by the printed parent chain. Names may count otherwise.

By Kd is commonly meant a measure of binding affinity in units of concentration. Low values mean tighter binding, high ones weaker binding. Molecule `CC1=C(/C=C/C(C)=C/C=C/C(C)=C/C(=O)O)C(C)(C)CCC1` [all-trans-retinoic acid] had an equilibrium dissociation constant (Kd) in data set [1] of 418 ± 124 nM.

B1: mouse Δ1–24-L-PGDS (lipocalin type prostaglandin D synthase) (Mus musculus; W54A) (protein)
chain: T1 sequence (O09114 25-189 S45A/T67A/S81A) with A21S, W30A, A43T, A57S
In general, Km refers to the concentration of substrate that gives half-maximal velocity. One may read the Vmax as the top rate of the reaction or transport when substrate is in excess. As to B1, in data set [2], the Km stood at 1.3 ± 0.5 µM and the maximum rate (Vmax) was found to be 3.6 µmol/min/mg.

B2: mouse Δ1–24-L-PGDS (lipocalin type prostaglandin D synthase) (Mus musculus; H111A) (protein)
chain: T1 sequence (O09114 25-189 S45A/T67A/S81A) with A21S, A43T, A57S, H87A
B2: in data set [2], the Michaelis-Menten constant (Km) turned out to be 1.4 ± 0.4 µM and the Vmax worked out at 5.1 µmol/min/mg.

B3: mouse Δ1–24-L-PGDS (lipocalin type prostaglandin D synthase) (Mus musculus; S45A/S81A/T67A) (protein)
chain: T1 sequence (O09114 25-189 S45A/T67A/S81A)
With B3, in data set [2], the Michaelis constant (Km) is 1.2 ± 0.1 µM and the Vmax came out at 0.5 µmol/min/mg.

B4: mouse Δ1–24-L-PGDS (lipocalin type prostaglandin D synthase) (Mus musculus; T67A) (protein)
chain: T1 sequence (O09114 25-189 S45A/T67A/S81A) with A21S, A57S
B4: in data set [2], the Km came out at 2.8 ± 0.9 µM and the maximum rate (Vmax) is 2.8 µmol/min/mg.

B5: mouse Δ1–24-L-PGDS (lipocalin type prostaglandin D synthase) (Mus musculus; S81A) (protein)
chain: T1 sequence (O09114 25-189 S45A/T67A/S81A) with A21S, A43T
In the case of B5, in data set [2], the Michaelis-Menten constant (Km) amounted to 1.5 ± 0.4 µM and the maximal velocity (Vmax) worked out at 4.7 µmol/min/mg.

B6: mouse Δ1–24-L-PGDS (lipocalin type prostaglandin D synthase) (Mus musculus; H116A) (protein)
chain: T1 sequence (O09114 25-189 S45A/T67A/S81A) with A21S, A43T, A57S, H92A
Regarding B6, in data set [2], the Michaelis-Menten constant (Km) stood at 1.4 ± 0.1 µM and the Vmax was determined as 4.4 µmol/min/mg.

B7: mouse Δ1–24-L-PGDS (lipocalin type prostaglandin D synthase) (Mus musculus; S45A) (protein)
chain: T1 sequence (O09114 25-189 S45A/T67A/S81A) with A43T, A57S
Consider B7, for which, in data set [2], the Michaelis constant (Km) was 0.5 ± 0.2 µM and the Vmax is 2.3 µmol/min/mg.

B8: Δ^1–24-L-PGDS + P110A (Mus musculus; P110A) (protein)
chain: MAALRMLWMGLVLLGLLGFPQTPAQGHDTVQPNFQQDKFLGRWYSAGLASNSSWFREKKAVLYMCKTVVAPSTEGGLNLTSTFLRKNQCETKIMVLQPAGAPGHYTYSSAHSGSIHSVSVVEANYDEYALLFSRGTKGPGQDFRMATLYSRTQTLKDELKEKFTTFSKAQGLTEEDIVFLPQPDKCIQE
Regarding B8, in data set [2], the Michaelis constant (Km) amounted to 1.6 ± 0.5 µM and the Vmax worked out at 4.8 µmol/min/mg.

B9: Δ^1–24-L-PGDS + S45A/T67A (Mus musculus; S45A/T67A) (protein)
chain: B8 chain with S45A, T67A, A110P
As to B9, in data set [2], the Km was found to be 2.1 ± 0.6 µM and the Vmax came to 1.6 µmol/min/mg.

B10: Δ^1–24-L-PGDS + S45A/S81A (Mus musculus; S45A/S81A) (protein)
chain: B8 chain with S45A, S81A, A110P
For the molecule B10, in data set [2], the Km was 1.2 ± 0.3 µM and the Vmax turned out to be 1.5 µmol/min/mg.

B11: Δ^1–24-L-PGDS + T67A/S81A (Mus musculus; S81A/T67A) (protein)
chain: B8 chain with T67A, S81A, A110P
Consider B11, for which, in data set [2], the Km worked out at 2.1 ± 0.2 µM and the maximum rate (Vmax) amounted to 1.3 µmol/min/mg.
